Article PMC5835670

Target: SbSTOP1d-NT (N-terminal fragment of SbSTOP1d, 1-275 aa, truncated before the zinc finger domain) fused to the GAL4 DNA-binding domain (Sorghum bicolor (sweet sorghum))
Experiment: two-hybrid; β-galactosidase assay in yeast strain Y190 with CPRG as substrate, Miller units; BD-SbSTOP1d-NT bait, AD fusion prey

Row | β-galactosidase activity, fold of the control (times that of the control) | Substance
1 | 80 | SbSTOP1b fused to the GAL4 activation domain (natural protein)
2 | 450 | SbSTOP1d fused to the GAL4 activation domain (natural protein)
